Measurements: IntAct's records for PubMed 7851759

B1: Serine/threonine-protein kinase STE11 (Saccharomyces cerevisiae), P23561 (parent)
chain: MEQTQTAEGTDLLIGDEKTNDLPFVQLFLEEIGCTQYLDSFIQCNLVTEEEIKYLDKDILIALGVNKIGDRLKILRKSKSFQRDKRIEQVNRLKNLMEKVSSLSTATLSMNSELIPEKHCVIFILNDGSAKKVNVNGCFNADSIKKRLIRRLPHELLATNSNGEVTKMVQDYDVFVLDYTKNVLHLLYDVELVTICHANDRVEKNRLIFVSKDQTPSDKAISTSKKLYLRTLSALSQVGPSSSNLLAQNKGISHNNAEGKLRIDNTEKDRIRQIFNQRPPSEFISTNLAGYFPHTDMKRLQKTMRESFRHSARLSIAQRRPLSAESNNIGDILLKHSNAVDMALLQGLDQTRLSSKLDTTKIPKLAHKRPEDNDAISNQLELLSVESGEEEDHDFFGEDSDIVSLPTKIATPKNWLKGACIGSGSFGSVYLGMNAHTGELMAVKQVEIKNNNIGVPTDNNKQANSDENNEQEEQQEKIEDVGAVSHPKTNQNIHRKMVDALQHEMNLLKELHHENIVTYYGASQEGGNLNIFLEYVPGGSVSSMLNNYGPFEESLITNFTRQILIGVAYLHKKNIIHRDIKGANILIDIKGCVKITDFGISKKLSPLNKKQNKRASLQGSVFWMSPEVVKQTATTAKADIWSTGCVVIEMFTGKHPFPDFSQMQAIFKIGTNTTPEIPSWATSEGKNFLRKAFELDYQYRPSALELLQHPWLDAHII
B2: Serine/threonine-protein kinase STE11 (Saccharomyces cerevisiae), P23561 (parent)
chain: B1 chain
partner: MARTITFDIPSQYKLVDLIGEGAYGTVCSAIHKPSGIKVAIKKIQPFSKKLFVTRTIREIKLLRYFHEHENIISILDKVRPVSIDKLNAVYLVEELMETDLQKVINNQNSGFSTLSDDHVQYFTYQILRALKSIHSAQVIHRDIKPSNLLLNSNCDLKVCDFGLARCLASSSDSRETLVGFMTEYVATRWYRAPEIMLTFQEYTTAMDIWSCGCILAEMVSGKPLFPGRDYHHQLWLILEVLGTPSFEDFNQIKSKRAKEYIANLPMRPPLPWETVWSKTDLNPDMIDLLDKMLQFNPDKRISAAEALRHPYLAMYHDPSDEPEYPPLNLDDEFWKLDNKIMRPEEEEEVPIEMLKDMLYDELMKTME
B3: Serine/threonine-protein kinase STE11 (Saccharomyces cerevisiae), P23561 (parent)
chain: B1 chain
partner: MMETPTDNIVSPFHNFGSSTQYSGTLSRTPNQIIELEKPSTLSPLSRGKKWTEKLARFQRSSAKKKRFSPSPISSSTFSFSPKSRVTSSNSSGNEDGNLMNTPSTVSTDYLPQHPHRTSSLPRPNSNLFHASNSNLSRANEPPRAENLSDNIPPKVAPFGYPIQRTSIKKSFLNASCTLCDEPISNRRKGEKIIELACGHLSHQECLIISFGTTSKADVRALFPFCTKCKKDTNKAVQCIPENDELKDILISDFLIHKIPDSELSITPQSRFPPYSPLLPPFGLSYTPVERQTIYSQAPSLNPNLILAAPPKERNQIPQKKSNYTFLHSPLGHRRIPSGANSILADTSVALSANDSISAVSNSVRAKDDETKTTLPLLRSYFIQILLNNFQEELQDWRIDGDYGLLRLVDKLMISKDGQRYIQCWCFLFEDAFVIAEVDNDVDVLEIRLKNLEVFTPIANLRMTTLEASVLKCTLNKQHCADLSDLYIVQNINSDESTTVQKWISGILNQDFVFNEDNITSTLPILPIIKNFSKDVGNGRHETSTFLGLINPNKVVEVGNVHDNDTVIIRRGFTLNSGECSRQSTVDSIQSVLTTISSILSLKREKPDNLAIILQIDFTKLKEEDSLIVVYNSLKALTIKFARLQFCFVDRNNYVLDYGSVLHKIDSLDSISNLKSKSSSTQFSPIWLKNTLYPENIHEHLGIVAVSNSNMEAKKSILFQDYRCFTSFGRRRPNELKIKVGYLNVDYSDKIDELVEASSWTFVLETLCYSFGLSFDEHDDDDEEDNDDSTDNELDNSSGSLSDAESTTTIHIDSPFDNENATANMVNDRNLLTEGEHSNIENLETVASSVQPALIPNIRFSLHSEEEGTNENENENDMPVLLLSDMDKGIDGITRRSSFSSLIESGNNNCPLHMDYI

Variants of: B1
Details: with fus3_yeast FUS3, P16892
fus3_yeast FUS3, P16892, sequence (P16892 whole entry): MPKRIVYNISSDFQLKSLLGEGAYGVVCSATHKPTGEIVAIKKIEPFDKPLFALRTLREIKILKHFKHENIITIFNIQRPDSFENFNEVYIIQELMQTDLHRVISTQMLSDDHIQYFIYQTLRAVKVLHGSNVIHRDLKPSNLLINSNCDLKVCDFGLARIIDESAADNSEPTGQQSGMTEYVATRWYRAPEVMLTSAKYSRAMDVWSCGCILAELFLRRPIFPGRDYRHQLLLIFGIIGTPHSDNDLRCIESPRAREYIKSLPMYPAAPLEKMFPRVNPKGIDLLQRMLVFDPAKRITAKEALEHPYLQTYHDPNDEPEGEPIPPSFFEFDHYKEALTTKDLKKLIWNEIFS

Row | effect of a mutation on the interaction | Variant
1 | decreasing interaction | P279S

Variants of: B2
Details: with kss1_yeast KSS1, P14681

Row | effect of a mutation on the interaction | Variant
2 | decreasing interaction | P279S

Variants of: B3
Details: with ste5_yeast STE5, P32917

Row | effect of a mutation on the interaction | Variant
3 | increasing interaction | P279S
